Data taken from patent US20060110789.

Target: diketide-ACP4(Ø) (DEBS ACP4 without linker, loaded with diketide), Q03132
Sequence (Q03132 other isoform, or with tags, fused parts or gaps): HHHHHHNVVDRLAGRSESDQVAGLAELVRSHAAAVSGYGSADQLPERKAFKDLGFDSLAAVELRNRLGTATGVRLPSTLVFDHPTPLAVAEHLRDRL

B1: (5)M2+TE (module 2 of DEBS with the N-terminal linker of module 5, fused to thioesterase) (protein)
chain: MSGDNGMTEEKLRRYLKRTVTELDSVTARLREVEHRAGIAIVGMACRLPGEVDSPERLWELITSGRDSAAEVPDDRGWVPDELMASDAAGTRAHGNFMAGAGDFDAAFFGISPREALAMDPQQRQALETTWEALESAGIPPETLRGSDTGVFVGMSHQGYATGRPRPEDGVDGYLLTGNTASVASGRIAYVLGLEGPALTVDTACSSSLVALHTACGSLRDGDCGLAVAGGVSVMAGPEVFTEFSRQGALSPDGRCKPFSDEADGFGLGEGSAFVVLQRLSDARREGRRVLGVVAGSAVNQDGASNGLSAPSGVAQQRVIRRAWARAGITGADVAVVEAHGTGTRLGDPVEASALLATYGKSRGSSGPVLLGSVKSNIGHAQAAAGVAGVIKVLLGLERGVVPPMLCRGERSGLIDWSSGEIELADGVREWSPAADGVRRAGVSAFGVSGTNAHVIIAEPPEPEPVPQPRRMLPATGVVPVVLSARTGAALRAQAGRLADHLAAHPGIAPADVSWTMARARQHFEERAAVLAADTAEAVHRLRAVADGAVVPGVVTGSASDGGSVFVFPGQGAQWEGMARELLPVPVFAESIAECDAVLSEVAGFSVSEVLEPRPDAPSLERVDVVQPVLFAVMVSLARLWRACGAVPSAVIGHSQGEIAAAVVAGALSLEDGMRVVARRSRAVRAVAGRGSMLSVRGGRSDVEKLLADDSWTGRLEVAAVNGPDAVVVAGDAQAAREFLEYCEGVGIRARAIPVDYASHTAHVEPVRDELVQALAGITPRRAEVPFFSTLTGDFLDGTELDAGYWYRNLRHPVEFHSAVQALTDQGYATFIEVSPHPVLASSVQETLDDAESDAAVLGTLERDAGDADRFLTALADAHTRGVAVDWEAVLGRAGLVDLPGYPFQGKRFWLLPDRTTPRDELDGWFYRVDWTEVPRSEPAALRGRWLVVVPEGHEEDGWTVEVRSALAEAGAEPEVTRGVGGLVGDCAGVVSLLALEGDGAVQTLVLVRELDAEGIDAPLWTVTFGAVDAGSPVARPDQAKLWGLGQVASLERGPRWTGLVDLPHMPDPELRGRLTAVLAGSEDQVAVRADAVRARRLSPAHVTATSEYAVPGGTILVTGGTAGLGAEVARWLAGRGAEHLALVSRRGPDTEGVGDLTAELTRLGARVSVHACDVSSREPVRELVHGLIEQGDVVRGVVHAAGLPQQVAINDMDEAAFDEVVAAKAGGAVHLDELCSDAELFLLFSSGAGVWGSARQGAYAAGNAFLDAFARHRRGRGLPATSVAWGLWAAGGMTGDEEAVSFLRERGVRAMPVPRALAALDRVLASGETAVVVTDVDWPAFAESYTAARPRPLLDRIVTTAPSERAGEPETESLRDRLAGLPRAERTAELVRLVRTSTATVLGHDDPKAVRATTPFKELGFDSLAAVRLRNLLNAATGLRLPSTLVFDHPNASAVAGFLDICCAGTAAISGPHEFTRLAGALRGIAPVRAVPQPGYEEGEPLPSSMAAVAAVQADAVIRTQGDKPFVVAGHSAGALMAYALATELLDRGHPPRGVVLIDVYPPGHQDAMNAWLEELTATLFDRETVRMDDTRLTALGAYDRLTGQWRPRETGLPTLLVSAGEPMGPWPDDSWKPTWPFEHDTVAVPGDHFTMVQEHADAIARHIDAWHHHHHH
With B1 the “kcat/KM, fold decrease against diketide-ACP4(4) with the same module” value was “the kcat/KM values drop approximately 70-300 fold”.
